Results on 10 molecules are retold here after patent US20180265572A1 (Bristol-Myers Squibb, published 2018).

The target of one test is human IGF-IR on cells (human, UniProt P08069 31-1367). In words: cell-based or functional assay.
Test [1] has as its target VEGFR2 fusion protein on Ba/F3 cells (extracellular domain of hVEGFR2 and intracellular domain of hEpoR) (human, UniProt P35968 20-764; P19235 274-508, limits assumed). As to the kind of experiment: cell-based or functional assay.
The target in test [2] is T1, human IGF-IR-Fc fusion (human, UniProt P08069 31-932).
T1 construct: range 1-932; If it counts on the precursor, it includes the signal peptide; also called IGF1R-Fc; not shown: hinge and constant regions of human IgG
As to the kind of experiment: SPR (Biacore), IGF-IR-Fc captured on Protein A/G, HTPP purified binder in solution, n=1, KD approximate.

Test [3] deals with T2, VEGFR2-Fc (R&D Systems) (UniProt P35968 20-764).
T2 construct: Bought reagent; not shown: Fc part of the bought fusion; not described
As to the kind of experiment: SPR (Biacore), immobilised VEGFR2-Fc, midscale material. For orientation: SPR reads the build-up and loss of mass on a sensor chip optically.

For test [4], the target named is T2, VEGFR2-Fc (R&D Systems). As to the kind of experiment: SPR (Biacore), immobilized VEGFR2-Fc, midscale purified binder.
Test [5] concerns the target T1, human IGF-IR-Fc fusion. As to the kind of experiment: SPR (Biacore), captured IGF-IR-Fc, midscale material.
The target of test [6] is T1, human IGF-IR-Fc fusion. As to the kind of experiment: SPR (Biacore), captured IGF1R-Fc, midscale purified binder.
Test [7] addresses T3, VEGFR-2 (KDR) on transfected cells (UniProt P35968 20-1356, limits assumed).
T3 construct: whole, on cells; also called Flk-1
As to the kind of experiment: competitive blocking assay on 293:KDR cells; competitor 200 nM IRDye 800CW-labelled Peg-V2Bshort. The protocol: Similarly, the pegylated, his-tagged construct 385A08-Fn-V2B-cys was able to block the interaction of a mono-specific ¹⁰Fn3-based VEGFR-2 binder (Peg-V2Bshort, SEQ ID NO: 28) with VEGFR-2 present on 293:KDR cells. […] In particular, in a Ba/F3 assay (described below), the IC₅₀ for the monomeric, non-pegylated VEGFR2 binder V2Bshort (SEQ ID NO: 28) is approximately 0.1-3 nM whereas the IC₅₀ for the monomeric, non-pegylated VEGFR2 binder having SEQ ID NO: 44 (e.g., with an N-terminal extension) is approximately 8-13 nM. […] Both the R⁺ and 293:KDR cell based competitive blocking assays are described in detail in the materials and methods section below.
293:KDR (Sibtech, Brookfield, Conn.) were plated in 96 well plates at a concentration of 25,000 cells per well in DMEM (Invitrogen, Carlsbad, Calif.) containing 10% fetal bovine serum (Hyclone, Logan, Utah). The following day, cells were washed twice in serum free DMEM containing 0.1% BSA (Invitrogen, Carlsbad, Calif.). After the washes, the cells were incubated at 4° C. for 10 minutes in binding buffer (serum free DMEM+0.1% BSA) containing increasing concentrations of VEGFR-2 antagonists or controls. Typical controls included the mono-specific ¹⁰Fn3-based VEGFR2 binder (Peg-V2Bshort, SEQ ID NO: 28) (positive control) or the mono-specific ¹⁰Fn3-based IGF-IR binder (AT580-PEG40, SEQ ID NO: 27) (negative control). […]

In test [8] the target is T1, human IGF-IR-Fc fusion. As to the kind of experiment: SPR (Biacore), IGF1R-Fc captured on Protein A. The protocol:
(§1) Affinity data was also measured from midscale and large scale material, for the pegylated version of the tandem construct 385A08-Fn-V2B-cys (SEQ ID NO: 9, with and without his tag). The specific materials and methods for these calculations are described below.
(§2) An alternative method is to capture the IGF—IR-Fc on Protein A. This method was used for calculating the affinity and kinetics of certain versions of the construct 385A08-Fn-V2B-cys (both pegylated and non-pegylated and with or without his tag) from midscale and large scale materials. Specifically, IGF—IR-Fc was captured on Protein A immobilized on a Biacore CM5 sensor chip by amine coupling. VEGFR2-Fc was immobilized directly on a CM5 chip by amine coupling. The affinity and kinetic analysis involved the capture of IGF—IR-Fc on Protein A followed by injection of the tandem adnectin in solution over IGF—IR-Fc and VEGFR2-Fc. The analytical surface was regenerated between samples with glycine pH 1.5. Sensorgrams were obtained at each concentration and were evaluated using Biacore T100 evaluation software to determine the rate constants kₐ (kₒₙ) and kd (koff).

Test [9] addresses T2, VEGFR2-Fc (R&D Systems). In words: SPR (Biacore), VEGFR2-Fc immobilized directly on the chip. The protocol:
as §1, §2
The functionality of the V2B domain was assessed by evaluating a concentration series of the midscale and large scale purification of the tandem construct 385A08-Fn-V2B (pegylated, and non-pegylated versions, his-tag and non-his-tag versions) vs. VEGFR2-Fc that was directly immobilized on a CM5 chip surface (GE, Piscataway, N.J.). VEGFR2-Fc (R&D Systems, MN) was diluted to 12 ug/mL in 50 mM Acetate pH 5.0 for an immobilization level of ˜1300 RU. Varying concentrations of 385A08-Fn-V2B in the solution phase were monitored for association (2 minutes) and dissociation (10 minutes) kinetics at a flow rate of 50 uL/min. Two 30 second injections of 50 mM glycine pH 1.7 were used to regenerate the surface.

The target of test [10] is VEGFR-2 in cynomolgus monkeys (in vivo). In words: cell-based or functional assay.
Test [11] deals with VEGFR-2 in nude mice (in vivo) (UniProt P35918 20-1345, limits assumed). As to the kind of experiment: cell-based or functional assay.

Numbering of substitutions follows the chain as printed. Names and notes keep the numbering of the source. Values joined by “and” are separate entries in the source; they are usually repeats but may differ in a detail not shown here. Equal entries are not always repeated.

B1: 385A08-Fn-V2B-Cys (designed binder)
single chain: MGVSDVPRDLEVVAATPTSLLISWSARLKVARYYRITYGETGGNSPVQEFTVPKNVYTATISGLKPGVDYTITVYAVTRFRDYQPISINYRTEIDKPSTSTSTVSDVPRDLEVVAATPTSLLISWRHPHFPTRYYRITYGETGGNSPVQEFTVPLQPPTATISGLKPGVDYTITVYAVTDGRNGRLLSIPISINYRTEIDKPCQHHHHHH
For the molecule B1, the “IC50, inhibition of proliferation of Rh41 cells (n=1)” value (from here on “IC50, inhibition … (n=1)”) in the test with human IGF-IR on cells came out at 33 nM. Also, in test [1], the “IC50, inhibition of VEGF-A dependent proliferation of Ba/F3 cells” value (“IC50, inhibition … of Ba/F3 cells” for short) came out at 1.3 nM.

B2: V2B-GS10 (SEQ ID NO: 22)-385A08, his-tagged (designed binder)
chain: MGVSDVPRDLEVVAATPTSLLISWRHPHFPTRYYRITYGETGGNSPVQEFTVPLQPPTATISGLKPGVDYTITVYAVTDGRNGRLLSIPISINYRTEIDKGSGSGSGSGSGSGSGSGSGSVSDVPRDLEVVAATPTSLLISWSARLKVARYYRITYGETGGNSPVQEFTVPKNVYTATISGLKPGVDYTITVYAVTRFRDYQPISINYRTEIDKPSQHHHHHH
notes: also called V2B-GS10-385A08; V2B-GS10-385A08 (Ser tail)
For the molecule B2, the Kd (as a rule, the free concentration of one partner at which half of the binding sites on the other are occupied at equilibrium, for simple one-to-one binding) with human IGF-IR-Fc fusion [2] was ~0.2 nM; in the test with VEGFR2-Fc (R&D Systems) [3] it was 0.6 nM; with human IGF-IR-Fc fusion [5], 0.05 nM. The figures for the koff in the test with VEGFR2-Fc (R&D Systems) [4] and in the test with human IGF-IR-Fc fusion [6] were 0.000222 s⁻¹ and 0.000204 s⁻¹, respectively. Besides, the kon (as a rule, a measure of how fast the partners come together) is 382000 M⁻¹ s⁻¹ with VEGFR2-Fc (R&D Systems) [4] and 4.18e+06 M⁻¹ s⁻¹ in the test with human IGF-IR-Fc fusion [6]. Also, in [1], the “IC50, inhibition … of Ba/F3 cells” value is 1.9 nM.

B3: 385A08-GS10 (SEQ ID NO: 22)-V2B, his-tagged (designed binder)
chain: MGVSDVPRDLEVVAATPTSLLISWSARLKVARYYRITYGETGGNSPVQEFTVPKNVYTATISGLKPGVDYTITVYAVTRFRDYQPISINYRTEIDKGSGSGSGSGSGSGSGSGSGSVSDVPRDLEVVAATPTSLLISWRHPHFPTRYYRITYGETGGNSPVQEFTVPLQPPTATISGLKPGVDYTITVYAVTDGRNGRLLSIPISINYRTEIDKPSQHHHHHH
notes: also called 385A08-GS10-V2B; 385A08-GS10-V2B (Ser tail)
Take B3: the results for the Kd in the test with human IGF-IR-Fc fusion [2], with VEGFR2-Fc (R&D Systems) [3] and in the test with human IGF-IR-Fc fusion [5] were ~0.3 nM, 0.5 nM and 0.04 nM, respectively. Also, the values for the koff with VEGFR2-Fc (R&D Systems) [4] and in the test with human IGF-IR-Fc fusion [6] were 0.000193 s⁻¹ and 0.000308 s⁻¹, respectively. Further, the kon with VEGFR2-Fc (R&D Systems) [4] is 414000 M⁻¹ s⁻¹; with human IGF-IR-Fc fusion [6], 7.72e+06 M⁻¹ s⁻¹. Moreover, the “IC50, inhibition … (n=1)” value in the test with human IGF-IR on cells is 27 nM. Also, the “IC50, inhibition … of Ba/F3 cells” value in [1] amounted to 1.2 nM.

B4: AT580-PEG20-AT580 (designed binder)
chain: MGVSDVPRDLEVVAATPTSLLISWSARLKVARYYRITYGETGGNSPVQEFTVPKNVYTATISGLKPGVDYTITVYAVTRFRDYQPISINYRTEIDKPCQ
modifications: the two chains are joined by a 20 kDa PEG at position 98 (cysteine) of each; labelled with IRDye 800CW in the competition assay
Turning to B4, in the test with human IGF-IR on cells, the “IC50, inhibition … (n=1)” value stood at 0.07 nM.

B5: V2B-GS5-385A08 (designed binder)
single chain: MGVSDVPRDLEVVAATPTSLLISWRHPHFPTRYYRITYGETGGNSPVQEFTVPLQPPTATISGLKPGVDYTITVYAVTDGRNGRLLSIPISINYRTEIDKGSGSGSGSGSVSDVPRDLEVVAATPTSLLISWSARLKVARYYRITYGETGGNSPVQEFTVPKNVYTATISGLKPGVDYTITVYAVTRFRDYQPISINYRTEIDKPSQHHHHHH
notes: also called V2B-GS5-385A08 (Ser tail)
As for B5, the Kd with human IGF-IR-Fc fusion [2] is ~0.2 nM. In addition, in [1], the “IC50, inhibition … of Ba/F3 cells” value is 2 nM.

B6: V2B-Fn-385A08-Cys (designed binder)
single chain: MGVSDVPRDLEVVAATPTSLLISWRHPHFPTRYYRITYGETGGNSPVQEFTVPLQPPTATISGLKPGVDYTITVYAVTDGRNGRLLSIPISINYRTEIDKPSTSTSTVSDVPRDLEVVAATPTSLLISWSARLKVARYYRITYGETGGNSPVQEFTVPKNVYTATISGLKPGVDYTITVYAVTRFRDYQPISINYRTEIDKPCQHHHHHH
Take B6: in the test with human IGF-IR on cells, the “IC50, inhibition … (n=1)” value came to 6 nM. Moreover, the “IC50, inhibition … of Ba/F3 cells” value in test [1] amounted to 0.8 nM.

B7: V2B-Fn-385A08 (designed binder)
single chain: B6 single chain with C203S
notes: also called V2B-Fn-385A08 (Ser tail)
Turning to B7, the Kd with human IGF-IR-Fc fusion [2] was ~0.2 nM. Besides, in test [1], the “IC50, inhibition … of Ba/F3 cells” value was 2.2 nM.

B8: Peg-V2Bshort (designed binder)
chain: GEVVAATPTSLLISWRHPHFPTRYYRITYGETGGNSPVQEFTVPLQPPTATISGLKPGVDYTITVYAVTDGRNGRLLSIPISINYRTEIDKPCQ
modifications: pegylated at position 93 (single cysteine); the tracer form is labelled with IRDye 800CW
With B8, the IC50 – broadly, the midpoint of a concentration-inhibition curve – in test [7] is ~20 nM. Besides, the “IC50, inhibition … (n=1)” value with human IGF-IR on cells is > 50 nM. For the same molecule, in test [1], the “IC50, inhibition … of Ba/F3 cells” value was determined as 10 nM.

B9: pegylated, non-his-tag version of 385A08-Fn-V2B-cys (designed binder)
chain: MGVSDVPRDLEVVAATPTSLLISWSARLKVARYYRITYGETGGNSPVQEFTVPKNVYTATISGLKPGVDYTITVYAVTRFRDYQPISINYRTEIDKPSTSTSTVSDVPRDLEVVAATPTSLLISWRHPHFPTRYYRITYGETGGNSPVQEFTVPLQPPTATISGLKPGVDYTITVYAVTDGRNGRLLSIPISINYRTEIDKPCQ
modifications: PEG on the single cysteine at position 203
notes: also called 385A08-Fn-V2B-cys (pegylated, no his-tag); 385A08-Fn-V2B-Cys (non-his tagged)
Regarding B9, in the test with human IGF-IR-Fc fusion [8], the Kd is 0.982 nM and 1.04 nM; the koff (commonly the first-order rate constant of dissociation) is 0.00027 s⁻¹ and 0.000253 s⁻¹; the kon was 275000 M⁻¹ s⁻¹ and 244000 M⁻¹ s⁻¹. Besides, in the test with VEGFR2-Fc (R&D Systems) [9], the Kd was 17.2 nM and 5.8 nM; the dissociation rate constant (koff) is 0.000115 s⁻¹ and 7.49e-05 s⁻¹; the on-rate (kon) was 6670 M⁻¹ s⁻¹ and 13000 M⁻¹ s⁻¹. The “plasma IC50 (grand mean), PK/PD model, monkeys” value in [10] stood at 159 nM. Further, the “plasma IC50, indirect-response PD model, nude mice bearing the A673 tumor” value in test [11] amounted to 7000 nM.

B10: 385A08-GS5-V2B (designed binder)
single chain: MGVSDVPRDLEVVAATPTSLLISWSARLKVARYYRITYGETGGNSPVQEFTVPKNVYTATISGLKPGVDYTITVYAVTRFRDYQPISINYRTEIDKGSGSGSGSGSVSDVPRDLEVVAATPTSLLISWRHPHFPTRYYRITYGETGGNSPVQEFTVPLQPPTATISGLKPGVDYTITVYAVTDGRNGRLLSIPISINYRTEIDKPSQHHHHHH
notes: also called 385A08-GS5-V2B (Ser tail)
Regarding B10, the Kd with human IGF-IR-Fc fusion [2] was ~0.3 nM. The “IC50, inhibition … (n=1)” value in the test with human IGF-IR on cells came out at 40 nM. Besides, in test [1], the “IC50, inhibition … of Ba/F3 cells” value is 1 nM.
